Test results: the DeepSol protein solubility set

Test: soluble on expression in E. coli; label from the status in PepcDB or PDB records

| Sequence | soluble on expression in E. coli |
| --- | --- |
| MSCTTDKLIQKYDALVRKTTEHKFAKELCAGTLKDRSLYIYLSQDLQFFETSLRLICKTTSLAPTTHALITLAKKIGFFSNDENSYFHDCLELLAPSLTKEERDNFDNKAIPGVDAYINFLDELRKDASITWPSLVTSLWVAEELYWRWARDTPRAPGLHWKYQKWIDLHDGEHFQTWCEFLKAEVDKFPVEEVESIFVKVSQFEFEFFESCYNA | not soluble |
| MAVIKQDDLIQSVADALQFISYYHPVDFIQAMHEAYLREESPAARDSMAQILINSRMCATGHRPICQDTGIVTVFVRVGMDVRWDGATMSVDDMINEGVRRAYNLPENVLRASILADPAGARKNTKDNTPAVIHYSIVPGDKVEVDVAAKGGGSENKSKMAMLNPSDSIVDWVLKTVPTMGAGWCPPGMLGIGIGGTAEKAAVMAKEVLMDPIDIHELKARGPQNRIEELRLELFEKVNQLGIGAQGLGGLTTVLDVKIMDYPTHAASLPVCMIPNCAATRHAHFVLDGSGPAELEAPSLDAYPEIVWEAGPSARRVDLDKITPEEVQSWKPGETLLLNGKMLTGRDAAHKRMVDMLNKGETLPVDLKGRFIYYVGPVDPVGDEVVGPAGPTTATRMDKFTRQILEQTGLLGMIGKSERGPIAIEAIKDNKAVYLMAVGGAAYLVAQAIKKSKVLAFAELGMEAIYEFEVKDMPVTVAVDTNGESVHITGPAVWQ | not soluble |
| MTQRLKDKLAVITGGANGIGRAIAERFAVEGADIAIADLVPAPEAEAAIRNLGRRVLTVKCDVSQPGDVEAFGKQVISTFGRCDILVNNAGIYPLIPFDELTFEQWKKTFEINVDSGFLMAKAFVPGMKRNGWGRIINLTSTTYWLKIEAYTHYISTKAANIGFTRALASDLGKDGITVNAIAPSLVRTATTEASALSAMFDVLPNMLQAIPRLQVPLDLTGAAAFLASDDASFITGQTLAVDGGMVRH | soluble |
| MSDADSQKQIKLTSSDDKTFTVSRKVISQSKTITDIIQNLGIEESGSTSEDTIPLQKVTSTILEKIITWCEHHADDEPKKVDENKKTVDISEWDAEFMKVDQGTLFEIILAANYLDIRGLLDVTTQNVANMMKGKTPSQIRTLFNIENDFSEEEREAMKKENAWCED | not soluble |
| MTIHHHGSAERKSIDDYSDIPRGEACKQLVEQLNRNLYSLNSNMQTTFKQMVHVETRIGHEISLLSSCLQENMSKCTMPYAPHEEQLVQLDSAKRNLKQLTRLLDARQIFDAEDSQSEKLKDRAIDDSLLPTLVAIGDNLKIIKELGAKPKFDAETYHKTKDRYLAWKGTEFAVKFDTPGGLDDIFDAFTTLNSVNDFYRLYQHHFDQSLNNLNKNSGIEDEKSLKEMGTVFVTKAAEHFRTHIGSLCKYCDENEAFTRLLDAWKNYIKNGTLEKLFEQSMENYNNYDLLSDLKSVVTKAYEEFETNTAGGPEDDEESIENIERIIVDGLMESAKKPLSEKLRSMVEPPPLNFRSVAEVMSSLENFAYLLREISHQLLEIYLEDEGREFMISILKPIFTDYTMRLCRMEDNSTPKVKLEEYLERIALAGQLSTIVEEYKDQTEIKNGLELKNAKKWMNERVKDAIRASHRFVTDKMPNHGSETYKESADMAKSALPTPQDFVVTATQNLLHLLRFWEEALANENTKVALIAHVMDINKESLETPDDDAIFAAILDRIASHVVKKLLQSINDVWLTDGKTATLSKGLVKEFLCDAEYLRDALVDLRAGTHDNLDSTINKLREQLKTMS | not soluble |
| MQDLEAELERARELDVATLADAIETIGFECTRCGACCKSEADDPHTATVFPDEVRDVQAAAGAETDRDWRDVARPMPYGLDEDGAGETFEWALQADSCGDCTFYREDDDGTGACSVHGSRPLICQTYPFSVALGGTSQPMGEAVDEAGMVRAHECEGLGRDISRADAEELAGALKARAIRELEEAIDVREAYAPANPEPGATVVHDSEGAKRPDGSAYPNAAALEHHHHHH | not soluble |
| MGSDKIHHHHHHMNSGGYMAIPPGAILPESLPEFKIFMRNREGKYVLWAADGNRVTVAQLAKLSESGVQDVFVDIEESFKYEQYLEANLGKILDNQGITVDRKAAIFSRVSTNVVKAAFETSLKSGAMGMETLQRTQKMIENAMKFITDSNSLPALAKMIGHDYETYEHAMKVTWWTVAFISENPEILTYCQKDEISDAEQISETLRSCGVCALLHDIGKAYVPQEVINKNGPLTEIEWEIMKRHPLSGLAMLLDSELPAFVKKAIVQHHEDFDGGGYPMNLEGTNITVLARVLRIMDVFDAMTSRRPYKDPLSPMKVIQIMIGTPSHPEDNAEPAQDPRDRGMGRCFDHELLGKFIIFIGNVKLD | not soluble |
| GPGSMKKCWVFDCAAPGLYCEPRRLLKPFSTDSILDAAGRAFETVEDGLKATTWRTHHAFSARCGLTSVTRSDSTTCGKGVEESSVSRSPEDYREWHADFHLRSPSAEPHVLLSVAPHYLPSRGSGNADDGRKMEVVGSRGRWLKPWRPQTAEEQAAYDAAVLGTPLIWEEPLVLSLDCTADGVFLWSEDHGIYGEKVANRCFERHSSDAGDDSAEFKQEAFLRFRWSEQPPAQTSSVGSGRHEMKEEHVESPNVSKCGELRVFRGQRTKVEAEEPHVERISYEEADVDAGSGGFLWQSVLHRIISCGPVPKEVYFAPYVTLMESGDEVSLL | not soluble |
| SSEQAIIVSAINHSLAQFSCHLIDGVTGSGKTEVYLQSMEEVLANNQQVLVIVPEIGLTPQTLNRFEQRFNVPIALHHSGLNDKERLATWLSAQQGSAAIVIGTRSAVFTPLHRLGLIIIDEEHDSSLKQQDSFRYHCRDMAILRARQLNIPIVLGTATP | not soluble |
| MNPKFRSFFSKNAEIFRFSLSENPEIFRFSRHFSMKSFYDIIEIDEIATFDDVKKAYFRFLRKDNRPIYDSWLREQRLRETQGTIGETIELEYGERDVDEYCRKKIPKKNIFSKKKKRFFRTFSNRPNPRHGNLRVLLVLPLSRNPSLLHHHHHPRHPLKKMSSLDESSTKILVLGDSCVGKTSLCHCIAGGGEPPGGGRSFDSTIGATVVMAWHEYRAGTPEQRTELLELWDIGGMVAHRQAAQVFFEGAVGAILVHDLTNKRSEENLATWLTMLDGKPRGAAPKSSKDPAAVALKVDIESCNIPVLIVGTKADLVPHKGPVSYDRYDGLGNANSAISVWKPRNRRKNSKKPMKIGRKLVVEKEKVKKFGRQYLRRGLGFSFSSARWHKEMTEARNVQKSMKMVIFRLFSMGGRN | not soluble |
| MSLKYKAIAAGLLAAHLLAHPISSLAETKKFPDVSDSAWSKDAIYYLVERNVINGMPDGNFMPYGNLTRAQAAKIIATAIGAKVDPNAKPSYNDAKNSWAASFIAAMEKENIIKGREPGVFDPEGKVTRAEMAAMLVRAYNLKSKVTGPVPTKFADLENHWGKEEVNILVELKLSLGTENGWKPNDSITREQAAQLTAQTDKFSKNSDRPVEEGHHHHHH | soluble |
| MADNSDANGVPYYFLINMGGGFVEGEQYQVTIDVNKDAHALVTTQTPTYVYKCEKGQLTQQNTSITLEENSYLEYMADEVIPYLKSRYFQTSRIDMDKSAHLIYSDGVTAGWSHEDLPFQYHYFRNLTQIYQDNELVYSDQTLLEPEKQDMFKLGYFEGWRNYNSLVMVSPNIDEAFVKALQKHLEGLNLESDFAISSLDISGLVLRILGKTAEDNRRIIYSCADYFRQEIHGLTPLNLRKNDMRRLEHHHHHH | not soluble |
| MSATTTLKEQVLTTLKREQANAVVMYLNYKKYHWLTYGPLFRDLHLLFEEQGSEVFAMIDELAERSLMLDGQPVADPADYLKVATVTPSSGQLTVKQMIEEAIANHELIITEMHQDAEIATEAGDIGTADLYTRLVQTHQKHRWFLKEFLAKGDGLVS | soluble |
| MLDMNPQETYTAPEEVNTPSRPIDENALLQRHQVMVKRVVNQLRVHATSHCSIEDMQQIGLIALVEAGRRYGDIDDTHFPAFAVCRVRGAILDELRRLDWRSRKTRQQAHELNDVTRDLTRSLGRMPTDSEIIKALGTDEQDYYNRQNAALAGEMQSLDQLMENSTDSHFGGQYDGMEHEHIRRSLDSALGRLSKRDQLLLTLFYQHELNLHEIALVLDLTPPRICQLHKQALKQLNQLMSS | not soluble |
| MIITVASFKGGVGKTTTAVHLSAYLALQGETLLIDGDPNRSATGWGKRGSLPFKVVDERQAAKYAPKYQNIVIDTQARPEDEDLEALADGCDLLVIPSTPDALALDALILTIETLQKLGNNRFRILLTIIPPYPSKDGDEARQLLTTAGLPLFKRGIKRYSAFQKASLNGVVVSEVSDSKAGIAWSDYKATGKEIVEEILILEHHHHHH | soluble |
| HHHHHHKVDLGGFAGLFDLKAAGFKDPLLASGTDGVGTKLKIAQLCNKHDTIGQDLVAMCVNDILAQGAEPLFFLDYFSCGKLDLSVTEAVVAGIAKACGKAGCALLGGETAEMPDMYPPGEYDLAGFAVGAMERDQKLPHLERITEGDVVVGIASSGLHSNGFSLVRKIVAKSSLQYSSPAPDGCGDQTLGDLLLTPTRIYSHSLLPVLRSGHVKAFAHITGGGLLENIPRVLPEKLGVDLDAQTWRIPRVFSWLQQEGHLSEEEMARTFNCGVGAVLVVSKEQTEQILRGIQQHKEEAWVIGSVVARAEGSPRVKVKNLIESMQINGSVLKN | soluble |
| MKLTKGKVLLAGCMAMAMSHSVLAQDIKVAIVGAMSGPVAQYGDMQFTGARQAIADINASGGIKGDKLVGVEYDDACDPKQAVAVANKVINDGIRYVIGHLCSSSTQPASDIYEDEGVIMITPAATNADLTTRGYKMIMRTTGLDSDQGPTAAKYIVETIKPKRIAVVHDKQQYGEGLARSVRDSLKEQGAEVVLFEGVTAGDKDFSTLVARLKKENVDFVYFGGYYPEMGQILRQAKQAGLTARFMGPEGVGNSSLSNIAGEASEGMLVTLPKRYDQVPANQPIVDALKAKKLDPTGPFVWTTYAALQSLTTAMERTGSKEPADLANDLKTGKPVETVMGPLSWDDKGDLKGFEFGIFEWHADGSSTAVK | not soluble |
| MNTNMVASELGVSAKTVQRWVKQLNLPAERNELGHYSFTAEDVKVLKSVQKQISEGTAIQDIHLPKSAKKRTGFLVQKTSSDTERRIEQLEQKLDTLLQQRQDESELMARMSELERQLKQKADEGVSYQLLQHRREIDDILADLQSLTSQMKEFTAHSIPETAAASEKTKTRKKPLLSLFKFQTLEHHHHHH | not soluble |
| MSLDDYGIPQVAEINEQISVVWKDYGISPAPEAQDFEWVRRVYLDIIGRVPSVAELEEFQRDRGKDRKKNLVEKLLNDSAFTEEYARNWTTIWTNVLIGRNGGLDNNSQVSREGMQKYLRDSFARNKPYDQLVREVITSEGANAPGMPNFNGAVNFYMDKLAEDGVQATAKTAQIFLGVQVQCTQCHNHPFNSWKQDKFWELNAFFRQTRAQRDRGMEANEGHHHHHH | not soluble |
| FEPMMQRDKIMQNLSYISDVNVLPDWMTVSQLLSYTEGVHPGFNRSKADALLRQTDIKPRAKIRALSKGMKVQLHLAIVIATNTQILILDEPTLGLDLVYRDTFYRHLLEWFHDGERVLIITSHEVSEIEHLLTDVLILKHGRPVLQTSMESISEDYFILDANDEHRAQIEAMHPLSSQKGLGTTKWLLSSQYADQAAGLGDVHGVKLADLFLALQKEAA | not soluble |
| MGSDKIHHHHHHMTYPVVLVNVSRNTNAISFPMGLSVVANALLHHDITPQIIDLIPVMPDQRIDYFLRTMPKEPAIYGFSMMIGNFHLDHAEHYARLIKEHSPDSIVVYGGSLPSSVPELLVENCECDFVIHGEGEVVFPAFVKALREGESFPEGPGIFYKGADGQVVGTKAKRMRRLDHLSRQNYSLFDMDFYSGYFKEVGLSWEIMASRGCKAHCSFCYKFMGDGIGLREVGEVLDEIQYIMENYGITKFYFVDENFMQIKKYFYSFLEEKKNRGLNFTFIASSRIDEIDEERISIAKEHGLTALTTGVESVNQATLNAIDKRIDIEDAERAVKLLRQYGIRPHVNLIIGFEWESEDDYKAMLEFIERNDLRGTVKLSYLTPLPATRLYEDAKSRNKLGKPEFEYVRTLGNLYWELMVNMTNMPDELLKHYYALISDVGKETRALPVTPAYRQNLNDDLVMYKTVAAPSPPPAHAAWSLP | not soluble |
